Test results published in patent US20240109967A1 (University of Pennsylvania, published 2024).
Like-named read-outs stand apart in the source and are kept apart here. One block for each binder: values may come before it.

Experiments:
[1] = biological target: T1, recombinant canine CTLA-4 extracellular domain protein (canine, UniProt Q9XSI1 36-161, biotin on the Avi tag (BirA ligase) in the ELISA, panning and interaction assays); experiment: SPR, full-length canine mAb and cCTLA-4
T1 construct: Cloned into pFUSE containing an HA tag, made in 293T cells; The SPR analyte is called soluble cCTLA-4 ECD, and biotinylation is not mentioned there; also called cCTLA-4; cCTLA-4 ECD
T1 chain: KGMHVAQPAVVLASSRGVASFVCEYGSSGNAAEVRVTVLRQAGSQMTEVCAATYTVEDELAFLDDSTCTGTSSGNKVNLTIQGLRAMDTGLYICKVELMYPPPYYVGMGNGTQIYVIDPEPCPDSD

[2] = biological target: T1, recombinant canine CTLA-4 extracellular …; experiment: SPR, mAb captured on the chip, cCTLA-4 ECD as analyte
[3] = biological target: T1, recombinant canine CTLA-4 extracellular …; experiment: ELISA; the axis is the amount of CTLA4 per well, not the mAb concentration
[4] = biological target: T1, recombinant canine CTLA-4 extracellular …; experiment: ELISA; the axis is the amount of coated CTLA4, not the mAb concentration
[5] = biological target: T1, recombinant canine CTLA-4 extracellular …; experiment: scFv expression extract ELISA on cCTLA-4 (data not shown)
[6] = biological target: T1, recombinant canine CTLA-4 extracellular …; experiment: ELISA; the axis is the amount of coated cCTLA-4, scFv fixed at 0.25 ug/ml
[7] = biological target: T1, recombinant canine CTLA-4 extracellular …; experiment: SPR, mAb captured on the chip, cCTLA-4 ECD as analyte
[8] = biological target: T2, human complement C1q (in normal human complement serum) (human, UniProt P02745 23-245; P02746 28-253; P02747 29-245); experiment: complement fixation ELISA: antibody titrated on captured cCTLA-4, C1q of human serum detected
T2 construct: also called human serum complement
T2 sequence (P02745 23-245 limits assumed, chain 1 of 3): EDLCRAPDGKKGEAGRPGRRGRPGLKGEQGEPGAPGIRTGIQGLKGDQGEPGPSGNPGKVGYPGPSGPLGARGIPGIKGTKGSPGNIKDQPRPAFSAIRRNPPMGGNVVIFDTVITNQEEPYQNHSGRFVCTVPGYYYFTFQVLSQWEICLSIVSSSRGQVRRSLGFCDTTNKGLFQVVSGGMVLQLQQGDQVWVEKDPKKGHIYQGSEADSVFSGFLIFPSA
T2 sequence (P02746 28-253 limits assumed, chain 2 of 3): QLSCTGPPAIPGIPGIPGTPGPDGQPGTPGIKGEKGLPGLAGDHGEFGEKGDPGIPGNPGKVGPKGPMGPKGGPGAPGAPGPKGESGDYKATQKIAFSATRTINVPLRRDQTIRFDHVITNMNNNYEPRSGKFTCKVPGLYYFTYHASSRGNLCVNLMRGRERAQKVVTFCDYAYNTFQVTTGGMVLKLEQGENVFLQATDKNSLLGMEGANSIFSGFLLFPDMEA
T2 sequence (P02747 29-245 limits assumed, chain 3 of 3): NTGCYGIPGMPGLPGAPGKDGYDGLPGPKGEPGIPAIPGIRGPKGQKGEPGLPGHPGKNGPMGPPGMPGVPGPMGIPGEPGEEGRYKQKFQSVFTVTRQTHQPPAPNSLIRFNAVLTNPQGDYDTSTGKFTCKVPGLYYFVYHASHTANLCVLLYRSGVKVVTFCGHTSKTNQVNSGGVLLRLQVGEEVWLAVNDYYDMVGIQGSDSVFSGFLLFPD

- Kd [1]: 1.5 nM
- kon [1]: 120000 M⁻¹ s⁻¹
- t1/2 [1]: 64 min
- Kd [2]: 1.5 nM
- koff [2]: 0.00018 s⁻¹
- kon [2]: 120000 M⁻¹ s⁻¹
- t1/2 [2]: 64 min
- EC50 (read off the curve) [3]: ~0.7 pmol/well CTLA4
- EC50 (read off the curve) [4]: ~0.2 pmol biotinylated CTLA4/well
B1: D5 full-length canine IgG1 (IgGA) mAb (antibody)
heavy: EVQLVETGGDLMKPGGSLRLSCVASGFTFSSYSMSWVRQAPEKGLQLVAGINSGGSSTYYTDAVKGRFTISRDNAKNTLYLQMNSLRDEDTAVYYCVISNWSYWGQGTLVTVSSASTTAPSVFPLAPSCGSTSGSTVALACLVSGYFPEPVTVSWNSGSLTSGVHTFPSVLQSSGLYSLSSMVTVPSSRWPSETFTCNVVHPASNTKVDKPVFNECRCTDTPPCPVPEPLGGPSVLIFPPKPKDILRITRTPEVTCVVLDLGREDPEVQISWFVDGKEVHTAKTQSREQQFNGTYRVVSVLPIEHQDWLTGKEFKCRVNHIDLPSPIERTISKARGRAHKPSVYVLPPSPKELSSSDTVSVTCLIKDFYPPDIDVEWQSNGQQEPERKHRMTPPQLDEDGSYFLYSKLSVDKSRWQQGDPFTCAVMHETLQNHYTDLSLSHSPGKGGGSGGGSYPYDVPDYA
light: QPVLTQPPSVSAALGQRVTISCTGTATNVGGGYDVQWYQQFPGRPPKTIIYGNYNRPSGVPDRFSASTSGTTATLTISGLQAEDEANYYCSSWDNSLTAYVFGSGTQLTILGQPKASPSVTLFPPSSEELGANKATLVCLISDFYPSGVTVAWKADGSPITQGVETTKPSKQSNNKYAASSYLSLTPDKWKSHSSFSCLVTHEGSTVEKKVAPAECS
notes: The HA tag is placed on the heavy chain; also called D5 mAb; D5 antibody

- fold increase in binding over background [5]: > 20 fold
- EC50 (read off the curve) [6]: ~0.6 pmol biotinylated cCTLA4
B2: B10 scFv (soluble, His and HA tagged) (scFv)
scFv: QAVLNQPASVSAALGQRVTISCNTNIGSPYDVQWYQQLPGKSPKTIIYGNSNRPSGVPVRFSGSKSGSTATLTIAGIQAEDEADYYCQSYDDNVDGYVFGSGTQLTVLGGGSSRSSSSGGGGSGGGGEVQLVETGGDLVKPGGSLRLSCVASGFTFSDYPMNWVRQAPEKGLQLVGGINSGGSATYYTDAVKGRFTISRDNAKNTVYLQMNSLRAEDTAMYYCATSNFQYWGQGTLVTVSSESPSPPNLTSGQAGQHHHHHHGAYPYDVPDYAS
notes: Canine scFv from panning round 3; also called clone B10

- fold increase in binding over background [5]: > 20 fold
- EC50 (read off the curve) [6]: ~0.3 pmol biotinylated cCTLA4
B3: A1 scFv (soluble, His and HA tagged) (scFv)
scFv: QAVLNQPASVSGSLGQRVTISCTGSSSDIGKSYVAWYQQLPGTGPRTLINVDGNRASGVPDRFSVSRSGNTATLTISGLQAEDEADYHCSSWDWSLHTYVFGSGTQLTILGGGSSRSSSSGGGGSGGGGEVQLVESGGDLVKPAGSLRLSCVASGFSFSSYAMNWVRQAPGKGLQWIAGINSGGSSTSHIDAIKGRFTISRDNAKNTLYLQMNSLRAEDTAVYYCAISNWAYWGQGTLVTVSSESPSPPNLTSGQAGQHHHHHHGAYPYDVPDYAS
notes: Canine scFv from panning round 3; also called clone A1

- Kd [1]: 1.5 nM
- kon [1]: 160000 M⁻¹ s⁻¹
- t1/2 [1]: 46 min
- Kd [7]: 1.5 nM
- koff [7]: 0.00025 s⁻¹
- kon [7]: 160000 M⁻¹ s⁻¹
- t1/2 [7]: 46 min
- EC50 (read off the curve) [3]: ~0.9 pmol/well CTLA4
- EC50 (read off the curve) [4]: ~0.2 pmol biotinylated CTLA4/well
B4: B10 full-length canine IgG1 (IgGA) mAb (antibody)
heavy: EVQLVETGGDLVKPGGSLRLSCVASGFTFSDYPMNWVRQAPEKGLQLVGGINSGGSATYYTDAVKGRFTISRDNAKNTVYLQMNSLRAEDTAMYYCATSNFQYWGQGTLVTVSSASTTAPSVFPLAPSCGSTSGSTVALACLVSGYFPEPVTVSWNSGSLTSGVHTFPSVLQSSGLYSLSSMVTVPSSRWPSETFTCNVVHPASNTKVDKPVFNECRCTDTPPCPVPEPLGGPSVLIFPPKPKDILRITRTPEVTCVVLDLGREDPEVQISWFVDGKEVHTAKTQSREQQFNGTYRVVSVLPIEHQDWLTGKEFKCRVNHIDLPSPIERTISKARGRAHKPSVYVLPPSPKELSSSDTVSVTCLIKDFYPPDIDVEWQSNGQQEPERKHRMTPPQLDEDGSYFLYSKLSVDKSRWQQGDPFTCAVMHETLQNHYTDLSLSHSPGKGGGSGGGSYPYDVPDYA
light: QAVLNQPASVSAALGQRVTISCNTNIGSPYDVQWYQQLPGKSPKTIIYGNSNRPSGVPVRFSGSKSGSTATLTIAGIQAEDEADYYCQSYDDNVDGYVFGSGTQLTVLGQPKASPSVTLFPPSSEELGANKATLVCLISDFYPSGVTVAWKADGSPITQGVETTKPSKQSNNKYAASSYLSLTPDKWKSHSSFSCLVTHEGSTVEKKVAPAECS
notes: The HA tag is placed on the heavy chain; also called B10 mAb; B10 antibody

- EC50 (read off the curve) [8]: ~0.5 ug/ml antibody
B5: A1mut2 full-length canine IgG3 (IgGC) mAb, HA-tagged (antibody)
heavy: EVQLVETGGDLVKPGGSLRLSCVASGFSFSSYAMNWVRQAPEKGLQLVGGINSGGSSTYYTDAVKGRFTISRDNAKNTVYLQMNSLRAEDTAVYYCAISNWAYWGQGTLVTVSSASTTAPSVFPLAPSCGSQSGSTVALACLVSGYIPEPVTVSWNSGSLTSGVHTFPSILQSSGLYSLSSMVTVPSSRWPSETFTCNVAHPATNTKVDKPVVKECECKCNCNNCPCPGCGLLGGPSVFIFPPKPKDILVTARTPTVTCVVVDLDPENPEVQISWFVDSKQVQTANTQPREEQSNGTYRVVSVLPIGHQDWLSGKQFKCKVNNKALPSPIEEIISKTPGQAHQPNVYVLPPSRDEMSKNTVTLTCLVKDFFPPEIDVEWQSNGQQEPESKYRMTPPQLDEDGSYFLYSKLSVDKSRWQRGDTFICAVMHEALHNHYTQKSLSHSPGKGGGSGGGSYPYDVPDYA
light: QAVLNQPASVSGSLGQRVTISCTGSSSDIGKSYVAWYQQLPGTGPRTLINVDGNRASGVPDRFSVSRSGNTATLTISGLQAEDEADYHCSSWDWSLHTYVFGSGTQLTILGQPKASPSVTLFPPSSEELGANKATLVCLISDFYPSGVTVAWKADGSPITQGVETTKPSKQSNNKYAASSYLSLTPDKWKSHSSFSCLVTHEGSTVEKKVAPAECS
notes: also called A1mut2 IgGC

- EC50 (read off the curve) [8]: ~0.6 ug/ml antibody
B6: A1mut2 full-length canine IgG2 (IgGB) mAb, HA-tagged (antibody)
heavy: EVQLVETGGDLVKPGGSLRLSCVASGFSFSSYAMNWVRQAPEKGLQLVGGINSGGSSTYYTDAVKGRFTISRDNAKNTVYLQMNSLRAEDTAVYYCAISNWAYWGQGTLVTVSSASTTAPSVFPLAPSCGSTSGSTVALACLVSGYFPEPVTVSWNSGSLTSGVHTFPSVLQSSGLYSLSSMVTVPSSRWPSETFTCNVAHPASKTKVDKPVPKRENGRVPRPPDCPKCPAPEMLGGPSVFIFPPKPKDTLLIARTPEVTCVVVDLDPEDPEVQISWFVDGKQMQTAKTQPREEQFNGTYRVVSVLPIGHQDWLKGKQFTCKVNNKALPSPIERTISKARGQAHQPSVYVLPPSREELSKNTVSLTCLIKDFFPPDIDVEWQSNGQQEPESKYRTTPPQLDEDGSYFLYSKLSVDKSRWQRGDTFICAVMHEALHNHYTQESLSHSPGKGGGSGGGSYPYDVPDYA
light: QAVLNQPASVSGSLGQRVTISCTGSSSDIGKSYVAWYQQLPGTGPRTLINVDGNRASGVPDRFSVSRSGNTATLTISGLQAEDEADYHCSSWDWSLHTYVFGSGTQLTILGQPKASPSVTLFPPSSEELGANKATLVCLISDFYPSGVTVAWKADGSPITQGVETTKPSKQSNNKYAASSYLSLTPDKWKSHSSFSCLVTHEGSTVEKKVAPAECS
notes: also called A1mut2 IgGB

- fold increase in binding over background [5]: > 20 fold
- EC50 (read off the curve) [6]: ~0.4 pmol biotinylated cCTLA4
B7: D5 scFv (soluble, His and HA tagged) (scFv)
scFv: QPVLTQPPSVSAALGQRVTISCTGTATNVGGGYDVQWYQQFPGRPPKTIIYGNYNRPSGVPDRFSASTSGTTATLTISGLQAEDEANYYCSSWDNSLTAYVFGSGTQLTILGGGSSRSSSSGGGGSGGGGEVQLVETGGDLMKPGGSLRLSCVASGFTFSSYSMSWVRQAPEKGLQLVAGINSGGSSTYYTDAVKGRFTISRDNAKNTLYLQMNSLRDEDTAVYYCVISNWSYWGQGTLVTVSSESPSPPNLTSGQAGQHHHHHHGAYPYDVPDYAS
notes: Canine scFv from panning round 4; also called clone D5

- EC50 (read off the curve) [3]: ~0.7 pmol/well CTLA4
B8: clone A1 full-length canine IgG1 (IgGA) mAb (antibody, V domains shown)
VH: EVQLVESGGDLVKPAGSLRLSCVASGFSFSSYAMNWVRQAPGKGLQWIAGINSGGSSTSHIDAIKGRFTISRDNAKNTLYLQMNSLRAEDTAVYYCAISNWAYWGQGTLVTVSS
VL: QAVLNQPASVSGSLGQRVTISCTGSSSDIGKSYVAWYQQLPGTGPRTLINVDGNRASGVPDRFSVSRSGNTATLTISGLQAEDEADYHCSSWDWSLHTYVFGSGTQLTILG
notes: Produced only at low levels; also called A1 mAb
